Assay results reported in US7892567.

Molecular target: T1, transcription factor RFX-5, P48382
T1 chain: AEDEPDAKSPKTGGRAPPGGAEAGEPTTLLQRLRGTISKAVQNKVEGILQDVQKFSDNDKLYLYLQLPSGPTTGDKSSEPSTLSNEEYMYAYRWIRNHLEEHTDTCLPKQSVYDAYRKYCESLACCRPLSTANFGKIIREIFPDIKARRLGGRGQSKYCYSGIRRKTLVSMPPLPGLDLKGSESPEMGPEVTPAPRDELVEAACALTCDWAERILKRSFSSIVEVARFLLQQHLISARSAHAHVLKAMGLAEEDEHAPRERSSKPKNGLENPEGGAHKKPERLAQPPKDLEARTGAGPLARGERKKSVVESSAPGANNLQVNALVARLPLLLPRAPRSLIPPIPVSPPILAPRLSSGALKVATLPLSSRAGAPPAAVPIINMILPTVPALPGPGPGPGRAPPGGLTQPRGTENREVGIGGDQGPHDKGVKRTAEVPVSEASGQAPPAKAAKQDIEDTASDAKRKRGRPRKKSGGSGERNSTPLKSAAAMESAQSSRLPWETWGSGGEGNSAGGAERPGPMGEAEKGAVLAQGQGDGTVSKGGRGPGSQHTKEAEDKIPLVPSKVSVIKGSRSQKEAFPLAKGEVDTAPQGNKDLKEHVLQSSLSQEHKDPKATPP

B1: recombinant chlamydial protease-like activity factor (CPAF) from the C. trachomatis L2 genome, fusion protein with a 6-His tag at the N-terminus (protein)
chain: MGFWRTSIMKMNRIWLLLLTFSSAIHSPVRGESLVCKNALQDLSFLEHLLQVKYAPKTWKEQYLGWDLVQSSVSAQQKLRTQENPSTSFCQQVLADFIGGLNDFHAGVTFFAIESAYLPYTVQKSSDGRFYFVDIMTFSSEIRVGDELLEVDGAPVQDVLATLYGSNHKGTAAEESAALRTLFSRMASLGHKVPSGRTTLKIRRPFGTTREVRVKWRYVPEGVGDLATIAPSIRAPQLQKSMRSFFPKKDDAFHRSSSLFYSPMVPHFWAELRNHYATSGLKSGYNIGSTDGFLPVIGPVIWESEGLFRAYISSVTDGDGKSHKVGFLRIPTYSWQDMEDFDPSGPPPWEEFAKIIQVFSSNTEALIIDQTNNPGGSVLYLYALLSMLTDRPLELPKHRMILTQDEVVDALDWLTLLENVDTNVESRLALGDNMEGYTVDLQVAEYLKSFGRQVLNCWSKGDIELSTPIPLFGFEKIHPHPRVQYSKPICVLINEQDFSCADFFPVVLKDNDRALIVGTRTAGAGGFVFNVQFPNRTGIKTCSLTGSLAVREHGAFIENIGVEPHIDLPFTANDIRYKGYSEYLDKVKKLVCQLINNDGTIILAEDGSF
degradation of the transcription factor RFX-5: the biological activity of recombinant CPAF was confirmed by the ability to degrade the transcription factor, RFX-5
